Data: publication PMC8215223

Molecular target: GM130 (UniProt Q08379)
Test: co-IP of GM130 with GFP-HOOK3
Conditions: reference: wild type

Question: HOOK3 (from UniProt Q86VS8) S238A was tested. Which “binding against the reference” value (sites S238) did it give?
Answer: The value was “weaker”.

Question: With HOOK3 (from UniProt Q86VS8) S707A as the substance, how does the “binding against the reference” value (sites S707) read?
Answer: Its value is “weaker”.
